In the experiment the test system is cells of the human embryonic stem cell line H1 differentiated to stage 5. The experiment in a line: Immunostaining for insulin protein expression at the end of Stage 5. Type of experiment: cell-based. The settings on record: 50 or 100 ng/ml for three days at stage 5, immunostaining vs control; FIG. 2, FIG. 3. As to the method:
Cells of the human embryonic stem cell line H1 (hESC H1, passage 40) were seeded as single cells at 1×10^5 cells/cm^2 on MATRIGEL™ (1:30 dilution; BD Biosciences, NJ)-coated dishes in mTeSR®1 media supplemented with 10 μM of Y27632. Forty-eight hours post seeding, cultures were washed in incomplete PBS (phosphate buffered saline without Mg or Ca). Cultures were differentiated into pancreatic endoderm/endocrine lineages as follows: • a) Stage 1 (Definitive Endoderm (DE)—3 days): Cells were cultured for one day in stage 1 media (see Example 1, above). Cells were then cultured for an additional day in MCDB-131 medium supplemented with 0.1% fatty acid-free BSA, 0.0012 g/ml sodium bicarbonate, 1× GlutaMax™, 4.5 mM D-Glucose, 100 ng/ml GDF8, and 0.1 μM MCX compound. […]

B1: Ephrin-A4: Ephrin ligand protein, R & D Systems catalogue number 369-EA (protein, UniProt P52798 26-170, looked up)
Ephrin-A4: LRHVVYWNSSNPRLLRGDAVVELGLNDYLDIVCPHYEGPGPPEGPETFALYMVDWPGYESCQAEGPRAYKRWVCSLPFGHVQFSEKIQRFTPFSLGFEFLPGETYYYISVPTPESSGQCLRLQVSVCCKERKSESAHPVGSPGES
On to B1, for which the “protein expression of insulin” value is on record as “significantly enhanced”.

Values taken from patent US10208288B2, “Differentiation of human embryonic stem cells into pancreatic endocrine cells” (Janssen Biotech, Inc., priority 2012, dated 2019).
